Assay [1] concerns the target T1, human EpCAM/TROP-1 protein (Sino Biological Inc, #10694-H02H-50) (human, UniProt P16422 24-265).
T1 construct: also called recombinant EpCAM protein; recombinant EpCAM
T1 sequence (looked up): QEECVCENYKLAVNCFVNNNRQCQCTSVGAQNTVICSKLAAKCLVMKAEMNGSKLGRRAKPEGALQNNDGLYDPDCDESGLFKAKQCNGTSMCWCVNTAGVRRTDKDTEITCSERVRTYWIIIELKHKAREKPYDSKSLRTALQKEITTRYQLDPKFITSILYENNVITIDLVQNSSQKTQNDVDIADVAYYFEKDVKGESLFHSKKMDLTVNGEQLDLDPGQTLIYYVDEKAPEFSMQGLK
The assay can be described thus: ELISA on plate-coated human EpCAM/TROP-1 (50 ng/well), anti-His detection, A450. Background: ELISA stands for enzyme-linked immunosorbent assay.

Assay [2] has as its target T2, human FAP/seprase protein (Sino Biological Inc, 10464-H07H-10) (human, UniProt Q12884 26-760).
T2 construct: also called recombinant FAP protein; FAP protein
Description: ELISA on plate-coated human FAP/seprase (100 ng/well), anti-His detection, A450.

For assay [3], the target named is Human FAP (fibroblast activation protein) on cells (human, UniProt Q12884 1-760). Description: cell-based or functional assay.
The next assay addresses T3, Human EpCAM on cells (human, UniProt P16422 24-314).
T3 sequence: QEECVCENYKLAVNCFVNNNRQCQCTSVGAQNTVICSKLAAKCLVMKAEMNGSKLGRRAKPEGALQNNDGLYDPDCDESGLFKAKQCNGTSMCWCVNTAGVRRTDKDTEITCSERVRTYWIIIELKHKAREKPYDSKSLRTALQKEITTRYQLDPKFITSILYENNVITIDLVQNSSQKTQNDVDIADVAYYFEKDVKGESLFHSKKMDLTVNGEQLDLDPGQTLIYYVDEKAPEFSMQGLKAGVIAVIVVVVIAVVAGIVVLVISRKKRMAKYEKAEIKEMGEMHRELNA
The assay can be described thus: cell-based or functional assay.

B1: Control (Anti-FHA) bispecific T-cell activator (anti-FHA scFv x anti-CD3 scFv, with N-terminal signal sequence and C-terminal deca-His affinity tag) (bispecific antibody)
chain: ELDIVMTQAPASLAVSLGQRATISCRASKSVSSSGYNYLHWYQQKPGQPPKLLIYLASNLESGVPARFSGSGSGTDFTLNIHPVEEEDAATYYCQHSREFPLTFGAGTKLEIKSSGGGGSGGGGGGSSRSSLEVQLQQSGPELVKPGASVKISCKTSGYTFTGYTMHWVRQSHGKSLEWIGGINPKNGGIIYNQKFQGKATLTVDKSSSTASMELRSLTSDDSAVYYCARRVYDDYPYYYAMDYWGQGTSVTVSSAKTTPPSVTSGGGGSDVQLVQSGAEVKKPGASVKVSCKASGYTFTRYTMHWVRQAPGQGLEWIGYINPSRGYTNYADSVKGRFTITTDKSTSTAYMELSSLRSEDTATYYCARYYDDHYCLDYWGQGTTVTVSSGEGTSTGSGGSGGSGGADDIVLTQSPATLSLSPGERATLSCRASQSVSYMNWYQQKPGKAPKRWIYDTSKVASGVPARFSGSGSGTDYSLTINSLEAEDAATYYCQQWSSNPLTFGGGTKVEIKHHHHHHHHHH
For the molecule B1, the binding result in assay [1] and in assay [2] was “no binding (tested: supernatant protein diluted 10-fold)” throughout.

B2: FAP bispecific T-cell activator (anti-FAP scFv x anti-CD3 scFv, with N-terminal signal sequence and C-terminal deca-His affinity tag) (bispecific antibody)
chain: DIVMTQSPDSLAVSLGERATINCKSSQSLLYSRNQKNYLAWYQQKPGQPPKLLIFWASTRESGVPDRFSGSGFGTDFTLTISSLQAEDVAVYYCQQYFSYPLTFGQGTKVEIKGGGGSGGGGSGGGGSQVQLVQSGAEVKKPGASVKVSCKTSRYTFTEYTIHWVRQAPGQRLEWIGGINPNNGIPNYNQKFKGRVTITVDTSASTAYMELSSLRSEDTAVYYCARRRIAYGYDEGHAMDYWGQGTLVTVSSGGGGSDVQLVQSGAEVKKPGASVKVSCKASGYTFTRYTMHWVRQAPGQGLEWIGYINPSRGYTNYADSVKGRFTITTDKSTSTAYMELSSLRSEDTATYYCARYYDDHYCLDYWGQGTTVTVSSGEGTSTGSGGSGGSGGADDIVLTQSPATLSLSPGERATLSCRASQSVSYMNWYQQKPGKAPKRWIYDTSKVASGVPARFSGSGSGTDYSLTINSLEAEDAATYYCQQWSSNPLTFGGGTKVEIKHHHHHHHHHH
For B2, in assay [3], the “EC50 of T cell-mediated lysis of NHDF cells (LDH assay, 24 h, 8,000 NHDF with 40,000 T-cells)” value turned out to be 3.2 ng/mL and the “EC50 of fibroblast (NHDF) lysis by LDH release after 24 h co-culture with PBMC T-cells” value is around 2.5 ng/mL.

B3: EpCAM bispecific T-cell activator (anti-EpCAM scFv x anti-CD3 scFv, with N-terminal signal sequence and C-terminal deca-His affinity tag) (bispecific antibody)
chain: ELVMTQSPSSLTVTAGEKVTMSCKSSQSLLNSGNQKNYLTWYQQKPGQPPKLLIYWASTRESGVPDRFTGSGSGTDFTLTISSVQAEDLAVYYCQNDYSYPLTFGAGTKLEIKGGGGSGGGGSGGGGSEVQLLEQSGAELVRPGTSVKISCKASGYAFTNYWLGWVKQRPGHGLEWIGDIFPGSGNIHYNEKFKGKATLTADKSSSTAYMQLSSLTFEDSAVYFCARLRNWDEPMDYWGQGTTVTVSSGGGGSDVQLVQSGAEVKKPGASVKVSCKASGYTFTRYTMHWVRQAPGQGLEWIGYINPSRGYTNYADSVKGRFTITTDKSTSTAYMELSSLRSEDTATYYCARYYDDHYCLDYWGQGTTVTVSSGEGTSTGSGGSGGSGGADDIVLTQSPATLSLSPGERATLSCRASQSVSYMNWYQQKPGKAPKRWIYDTSKVASGVPARFSGSGSGTDYSLTINSLEAEDAATYYCQQWSSNPLTFGGGTKVEIKHHHHHHHHHH
Take B3: the “EC50 of T cell-mediated lysis of DLD cells (LDH assay, 24 h, 8,000 DLD with 40,000 T-cells)” value in the assay with Human EpCAM on cells came to 7.4 ng/mL.

The record behind these values is patent US20250026851A1 (AKAMIS BIO, published 2025).
